The text below walks through data of the supplement of paper PMC12042874.

± gives the uncertainty stated by the source.

This series can be described thus: amyloid nucleation score (Sup35N fusion, yeast selection) (log enrichment); library NNK3; higher = more nucleation; inactive = no reads after selection. Put shortly: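 In psi-negative yeast, Sup35N fusions carrying peptides of 20 random codons were induced with 100 μM copper sulfate for 24 hours. The cells then grew 7 days at 30°C on medium lacking adenine and uracil, and plasmid inserts from input and output were Illumina-sequenced, excluding sequences with under 100 input reads. Nucleation score is the DiMSum log enrichment of output over input reads, centred on the mode score of non-aggregating sequences.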
For CREVINDSFPNATWLHSGLV, the amyloid nucleation score entry was “inactive”.

As for QFIEMSSQYFSMRYVDRVAD, the amyloid nucleation score result was “inactive”. Under GNVQIDASIKKSNGRWYGSV stands -0.063 ± 0.31; under TYPSEVYFIMFAMFSSTCWS, “inactive”.

Regarding TDELYWLKDFLYGFYNMKSP, the amyloid nucleation score result is “inactive”.

With SFPWSCPASYSYQGCWWERD, the amyloid nucleation score result was “inactive”. On to HMNGEDESDNGYIHFLRRER, for which the amyloid nucleation score entry was “inactive”. As for ELYVMLGDGAFVRAIKDYVS, the amyloid nucleation score entry is “inactive”. As to KYFRARYHSPSEWLWSMIDW, the amyloid nucleation score result is “inactive”. Under LNFRSV stands “inactive”; under AGSCVMFGPSW, “inactive”; under IINFSYANAVVIVWLNISMG, 1.08 ± 0.16. Take RLSSLPHCVIM: the amyloid nucleation score entry was “inactive”. In the case of TCHLPAQSLLFIRCSTKAGV, the amyloid nucleation score result was “inactive”. For EVVITLANAEGPAEQEF, the amyloid nucleation score entry is “inactive”.

For DLFSFYVGCLKSHPENPSLM, the amyloid nucleation score result was “inactive”.

Take FLAFSMEYCYVPHFWKVSLS: the amyloid nucleation score was determined as 0.311 ± 0.25. In turn, TLVCEDIVYRDLLITSFLYS had an amyloid nucleation score of 0.589 ± 0.087. On to NGRWRRFLWKNGCMELYRTG, for which the amyloid nucleation score stood at 1.52 ± 0.085. As to NSNFFL, the amyloid nucleation score result is “inactive”. Turning to FNVPS, the amyloid nucleation score worked out at 0.673 ± 0.42. FVRGCSRNSTRDCFYK: the amyloid nucleation score result is “inactive”.

On to SNVVSTS, for which the amyloid nucleation score result was “inactive”. Take EEVAGSTYIISSVVVYSRAG: the amyloid nucleation score came out at 1.57 ± 0.14.

Take GSFNFCSNAARFQ: the amyloid nucleation score result was “inactive”. SETKVIGQLRKTSNSEAHNA had an amyloid nucleation score of 0.422 ± 0.67. In the case of GLLMSMRSFFSGQVQNGAVL, the amyloid nucleation score entry is “inactive”.

VQIRAANLTYNRQCQSHLFS: the amyloid nucleation score entry is “inactive”. VKEPMVPITLLSSTSSLDGM: the amyloid nucleation score result is “inactive”.

On to TNSGGFRMVIYFFR, for which the amyloid nucleation score result is “inactive”. On to FRKTRIALFLPLTLDF, for which the amyloid nucleation score entry was “inactive”.

Regarding YYAFPLYKKSFYRIPTNVWA, the amyloid nucleation score entry is “inactive”.

On to VQSSIESLPDPIFRYLQSIS, for which the amyloid nucleation score result is “inactive”.

As for HRRSMQLWG, the amyloid nucleation score entry is “inactive”. The entry for RCREFERKLALSLQSVGS is “inactive”; for HNQKSCVYMSEGSWRSL it is “inactive”; for LQYLVNLLMQWVLRKIVQKV it is “inactive”.

AVKHHSSTFIFTMGIKLLWL: the amyloid nucleation score result is “inactive”. As for ILIRITGAFYIMIINNRRLL, the amyloid nucleation score result was “inactive”. In the case of GGHVSRRLHF, the amyloid nucleation score entry is “inactive”.

In the case of CVGQAPGVSLGFQTYQLILW, the amyloid nucleation score result was “inactive”. Consider RKGTWPHLGTVNRRVQRWVY, for which the amyloid nucleation score entry is “inactive”. Take VLRTTECVQG: the amyloid nucleation score entry was “inactive”. On to TFNRWCLVFLLMHNVLVCEW, for which the amyloid nucleation score stood at 0.185 ± 0.33. Regarding TNMHYMSHYLETTPFTTGMV, the amyloid nucleation score result was “inactive”. Consider ILSNINFVRNSFCYYMINFI, for which the amyloid nucleation score entry is “inactive”. In the case of LREVLCCVSTDSYVFILLRG, the amyloid nucleation score was found to be 1.01 ± 0.14. VYLWKYRPQYPRVA: the amyloid nucleation score result was “inactive”.

For the substance QSNCCWVV, the amyloid nucleation score entry is “inactive”.

KVIDSLVVSRLLTCASRHIR gave an amyloid nucleation score of 1.32 ± 0.077. Consider QGWPRKITVILFWILQSGSR, for which the amyloid nucleation score entry was “inactive”. On to LVVIDTIIHCLFKTAQCAWF, for which the amyloid nucleation score result was “inactive”. Turning to ISVVFSGKNSLKEMRMKMAG, the amyloid nucleation score amounted to 0.469 ± 0.21. Under VGRPTASGLRNCMWSLSWCV stands “inactive”. Under ICTKSALYQTMLS stands “inactive”; under CIHSRTNNIRMTNCVRLGLG, “inactive”. Turning to YFGFIVKISYTVLFGLGSKC, the amyloid nucleation score entry was “inactive”. Take IQHFFQINNWLLDI: the amyloid nucleation score turned out to be 1.98 ± 0.07. Under LFEGDQDGMRVCSHHMVFMI stands “inactive”. On to FPHGVHPYS, for which the amyloid nucleation score result is “inactive”. In the case of LWYSCLVSRSSIVSHGWVGL, the amyloid nucleation score entry was “inactive”. Under TMCHGDDLRNHCYSETNSFR stands “inactive”. Take LLVAYDQIFNF: the amyloid nucleation score result is “inactive”. Under IYRGHVRQKELFCHRREIQW stands “inactive”; under TVVLSWPMYAECKFSCICMT, 1.38 ± 0.1. In turn, AYMYSTILGSMPS displayed an amyloid nucleation score of 1.44 ± 0.11. On to GSICFNPTVWLVSRYRCS, for which the amyloid nucleation score was found to be 1.19 ± 0.12. Regarding FGRLTV, the amyloid nucleation score entry is “inactive”. The entry for MVRMDHCQVEDSMVTNVD is “inactive”; for GISFFIMFILVPLFRKGVKV it is “inactive”. Consider GLLLVRM, for which the amyloid nucleation score entry was “inactive”. Under DSIAVCGRITPSLNLQFDMQ stands “inactive”; under SLILERFNRHCVWGVSVKKH, “inactive”; under MFVRYIAISYWYQLTWEFSV, “inactive”. As for RDGTYRWSDLKTICLIRVSW, the amyloid nucleation score result is “inactive”. For VSLFRSLGNLSFSSIWLPSP, the amyloid nucleation score result is “inactive”. The entry for NPIRGYLMYSPALSPLVG is “inactive”; for TLGVGP it is “inactive”; for VYQSTSKF it is “inactive”. Under LSELSRSARVLMFQLFMSRC stands 1.87 ± 0.081.

For the substance YRLRNSS, the amyloid nucleation score entry was “inactive”. RHVNEGLVRGFNPSRTLKGK: the amyloid nucleation score entry is “inactive”.

TYVIFCYTVSHDDSHRTLYN came in with an amyloid nucleation score of 2.19 ± 0.084.

On to WQICSGA, for which the amyloid nucleation score result was “inactive”. Under SPFCFSCIHACWGNEKIRWV stands “inactive”; under VVFGHAFYVTSHKTVLCSFG, “inactive”; under MLLYYEEGLCIFLLSLNPVC, “inactive”. As to QLMDLTGFRRSSVYVLVCDF, the amyloid nucleation score entry is “inactive”. In the case of LKYNEKDPFECH, the amyloid nucleation score is -0.318 ± 0.42. The entry for MGHDCHRDW is “inactive”. RGIWGLSLYGVISNVSGLSK returned an amyloid nucleation score of -0.103 ± 0.43.

ALVLNRVLRLDVGVSSGCRL: the amyloid nucleation score result is “inactive”. Under IQSYK stands “inactive”; under WSISSECGERVFRVRTCH, -0.548 ± 1; under RYSESLMFRFKWDDYYRGRV, -0.307 ± 0.88.

Consider LFFCNCCYGICS, for which the amyloid nucleation score is 2.4 ± 0.079. Turning to RLAGCYYIP, the amyloid nucleation score result was “inactive”. As to WSYHATTPHLRRYRLERSSN, the amyloid nucleation score result is “inactive”. Take KTMDPILQFFERSTASLLLI: the amyloid nucleation score result was “inactive”. Turning to KVVARYRRKVCYNWHISEEK, the amyloid nucleation score entry is “inactive”. For the substance SQFLLGSQ, the amyloid nucleation score result is “inactive”. As for QRIHGLF, the amyloid nucleation score entry is “inactive”. Consider QKIIVSR, for which the amyloid nucleation score result was “inactive”. As to VVRYDEGVVLNSRFLLSPGW, the amyloid nucleation score entry was “inactive”. The figure for PFGGRR is 0.013 ± 0.47. Under EIGYYFNFKRLGAS stands “inactive”; under SNGLGLSLGNESANKEA, “inactive”.

For the substance PLAFWTCCYCLTWNLRLSWQ, the amyloid nucleation score worked out at 1.6 ± 0.059.

As to RTLAVSIRNQWPYIGLARDT, the amyloid nucleation score result is “inactive”. On to LIDSADWRCVMVVIRLGRCR, for which the amyloid nucleation score result is “inactive”. On to LLLRLLAWYMMVS, for which the amyloid nucleation score result was “inactive”. Under RVRQTFCIW stands 1.75 ± 0.11; under WQTTDRLFSVKKSALLVGFC, “inactive”. GYVSALMMIFYYHLWKKGPC: the amyloid nucleation score entry is “inactive”. On to KQGPWVDTVTVMKTFRMSIN, for which the amyloid nucleation score entry was “inactive”.

Regarding ANIGKIVKEHRQQSIQHCID, the amyloid nucleation score result is “inactive”.

As for RNIQWRFIP, the amyloid nucleation score result was “inactive”. On to CVLKMLNNHHAHFILNGCRT, for which the amyloid nucleation score entry was “inactive”. Under TAQFDNSCSGLQHVVVNK stands “inactive”; under FYWSLNSYVCASCMILFALM, “inactive”; under NNVFERQFRHLNSVDGPIDN, “inactive”. For SRVYAKGRKNTSQFCSGGYS, the amyloid nucleation score result was “inactive”. The entry for SSNLFVHHTSFTWASSTPHR is “inactive”; for QAIGIRICSK it is “inactive”; for HDSQMWYLSIIESYLVQYLM it is “inactive”. YSGLDSCVD: the amyloid nucleation score entry was “inactive”. For the substance YRINDKSFNVISGIVFSVVR, the amyloid nucleation score result is “inactive”. The entry for WPANGMSRLVNRL is “inactive”; for FYRCLLNH it is “inactive”; for LYWRSTGVSVWVRWVLYG it is “inactive”.

As to FMHSLTGNSGWGKGYRKSHV, the amyloid nucleation score was 1.04 ± 0.19.
